Data taken from publication PMC3537852.

Legend:
[1] = target: myc-tagged full-length mAKAPβ with an internal deletion of residues 1257–1886; test: co-IP
His-mAKAP 1286–1833 = test: SPR

Row | percent reduction of RSK3 binding against full-length mAKAPβ [1] | fold decrease of binding affinity against unphosphorylated RSK3 (His-mAKAP 1286–1833) | Substance
1 | > 85% | – | HA-tagged RSK3 (type 3 p90 ribosomal S6 kinase) (from UniProt Q15349 1-733) (enzyme)
2 | – | 8 fold | His-RSK3, full-length, ERK and PDK1-phosphorylated (from UniProt Q15349 1-733) (enzyme)
3 | – | 5 fold | His-RSK3, full-length, ERK-phosphorylated (from UniProt Q15349 1-733) (enzyme)
